The values below come from patent US20050118651A1 (NEURALAB, published 2005).

A value given as a limit tells only on which side of the number the result lay.

The test has as its target T1, synthetic Aβ1-42 peptide (aggregated in the ELISAs) (human, UniProt P05067 672-713).
T1 construct: range 672-713; It was coated as aggregated peptide in the ELISAs; also called aggregated Aβ1-42; Aβ (1-42) aggregate
Briefly: competitive Aβ 1-42 ELISA; competitor biotinylated m12A11Cγ2a at a fixed concentration. On the technique in general: ELISA stands for enzyme-linked immunosorbent assay.

B1: humanized 12A11 version 1 (antibody, V domains shown)
VH: QVQLVESGGGVVQPGRSLRLSCAFSGFSLSTSGMSVGWIRQAPGKGLEWLAHIWWDDDKYYNPSLKSRLTISKDTSKNTVYLQMNSLRAEDTAVYYCARRTTTADYFAYWGQGTTVTVSS
VL: DVVMTQSPLSLPVTPGEPASISCRSSQSIVHSNGNTYLEWYLQKPGQSPQLLIYKVSNRFSGVPDRFSGSGSGTDFTLKISRVEAEDVGVYYCFQSSHVPLTFGQGTKLEIK
notes: Made by transient expression in COS cells; also called h12A11v1; 12A11v1
For the molecule B1, the “fold of IC50 against murine and chimeric 12A11” value was ≤ 2 fold (x IC50).
